The Kd is a measure of binding affinity in units of concentration. Broadly, the koff is the first-order rate constant of dissociation. As usually defined, the kon is the rate constant with which the complex forms.

The values below come from EP4685489A2 (Roche Diagnostics GmbH, dated 2026).

Assay [1] has as its target T1, recombinant N-terminal fragment (residues 1-330) of human cardiac-type Myosin-binding protein C3 with … (human, UniProt Q14896 1-330).
T1 construct: expressed in HEK293-F cells and purified as a monomer; also called MYBPC3; N-terminal MyBPC-Fragment (1-330)
The assay can be described thus: SPR (Biacore) at 37°C, antibody captured via anti-mouse Fc, MYBPC3 0.4-90 nM, Langmuir 1:1 fit over 2 series. For orientation: In SPR one partner is held on a chip, and binding of the other changes the refractive index at the surface.

In assay [2] the target is T1, recombinant N-terminal fragment …. Description: Elecsys ECLIA sandwich; row antibody biotinylated (capture), second antibody ruthenylated 25H1 (detection); 2.7 pg/mL MYBPC3.
For assay [3] the target is unchanged. The assay can be described thus: Elecsys ECLIA sandwich; row antibody biotinylated (capture), second antibody ruthenylated 11F2 (detection); 2.7 pg/mL MYBPC3.
The target is the same in assay [4]. The assay can be described thus: Elecsys ECLIA sandwich; row antibody biotinylated (capture), second antibody ruthenylated 7B5 (detection); 2.7 pg/mL MYBPC3.
The target is the same in assay [5]. The assay can be described thus: sandwich ELISA, streptavidin MTP; row antibody biotinylated (capture), second antibody DIG-labelled 7B5 (detection); 2.7 pg/mL MYBPC3. A general note: An ELISA detects its analyte on a solid surface through an enzyme-linked reagent.
Assay [6] shares this target. Description: Elecsys ECLIA sandwich; row antibody biotinylated (capture), second antibody ruthenylated 7D5 (detection); 0.9 pg/mL MYBPC3.
The target is the same in assay [7]. The assay can be described thus: Elecsys ECLIA sandwich; row antibody biotinylated (capture), second antibody ruthenylated 11F2 (detection); 0.9 pg/mL MYBPC3.
For assay [8] the target is unchanged. The assay can be described thus: sandwich ELISA, streptavidin MTP; row antibody biotinylated (capture), second antibody DIG-labelled 4.6.6 (detection); 1 ng/mL MYBPC3.
For assay [9] the target is unchanged. Description: Elecsys ECLIA sandwich; row antibody biotinylated (capture), second antibody ruthenylated 8H1 (detection); 0.9 pg/mL MYBPC3.
The target is the same in assay [10]. Description: Elecsys ECLIA sandwich; row antibody biotinylated (capture), second antibody ruthenylated 8H1 (detection); 2.7 pg/mL MYBPC3.
Assay [11] has the same target. Description: Elecsys ECLIA sandwich; row antibody biotinylated (capture), second antibody ruthenylated 13F11 (detection); 2.7 pg/mL MYBPC3.
The target is the same in assay [12]. Description: Elecsys ECLIA sandwich; row antibody biotinylated (capture), second antibody ruthenylated 5B8 (detection); 2.7 pg/mL MYBPC3.
Assay [13] shares this target. Description: sandwich ELISA, streptavidin MTP; row antibody biotinylated (capture), second antibody DIG-labelled 4.1.1 (detection); 1 ng/mL MYBPC3.
The target is the same in assay [14]. Description: Elecsys ECLIA sandwich; row antibody biotinylated (capture), second antibody ruthenylated 25H1 (detection); 0.9 pg/mL MYBPC3.
For assay [15] the target is unchanged. Description: sandwich ELISA, streptavidin MTP; row antibody biotinylated (capture), second antibody DIG-labelled 4.7.10 (detection); 1 ng/mL MYBPC3.
Assay [16] shares this target. The assay can be described thus: sandwich ELISA, streptavidin MTP; row antibody biotinylated (capture), second antibody DIG-labelled 5B8 (detection); 2.7 pg/mL MYBPC3.
The target is the same in assay [17]. The assay can be described thus: Elecsys ECLIA sandwich; row antibody biotinylated (capture), second antibody ruthenylated 13F11 (detection); 0.9 pg/mL MYBPC3.
Assay [18] has the same target. Description: Elecsys ECLIA sandwich; row antibody biotinylated (capture), second antibody ruthenylated 5B8 (detection); 0.9 pg/mL MYBPC3.
For assay [19] the target is unchanged. Description: Elecsys ECLIA sandwich; row antibody biotinylated (capture), second antibody ruthenylated 7B5 (detection); 0.9 pg/mL MYBPC3.
Assay [20] shares this target. Description: Elecsys ECLIA sandwich; row antibody biotinylated (capture), second antibody ruthenylated 7D5 (detection); 2.7 pg/mL MYBPC3.
Assay [21] has the same target. Description: Elecsys ECLIA sandwich; row antibody biotinylated (capture), second antibody ruthenylated 4.1.1 (detection); 0.9 pg/mL MYBPC3.
The target is the same in assay [22]. Description: sandwich ELISA, streptavidin MTP; row antibody biotinylated (capture), second antibody DIG-labelled 4.1.1 (detection); 2.7 pg/mL MYBPC3.
For assay [23] the target is unchanged. The assay can be described thus: Elecsys ECLIA sandwich; row antibody biotinylated (capture), second antibody ruthenylated 4.1.1 (detection); 2.7 pg/mL MYBPC3.
Assay [24] has the same target. The assay can be described thus: sandwich ELISA, streptavidin MTP; row antibody biotinylated (capture), second antibody DIG-labelled 4.7.10 (detection); 2.7 pg/mL MYBPC3.
Assay [25] has the same target. Description: SPR (Biacore) at 37°C, antibody captured via anti-rabbit Fc, MYBPC3 0.4-90 nM, Langmuir 1:1 fit over 2 series.

T1 sequence (Q14896 other isoform, or with tags, fused parts or gaps limits assumed): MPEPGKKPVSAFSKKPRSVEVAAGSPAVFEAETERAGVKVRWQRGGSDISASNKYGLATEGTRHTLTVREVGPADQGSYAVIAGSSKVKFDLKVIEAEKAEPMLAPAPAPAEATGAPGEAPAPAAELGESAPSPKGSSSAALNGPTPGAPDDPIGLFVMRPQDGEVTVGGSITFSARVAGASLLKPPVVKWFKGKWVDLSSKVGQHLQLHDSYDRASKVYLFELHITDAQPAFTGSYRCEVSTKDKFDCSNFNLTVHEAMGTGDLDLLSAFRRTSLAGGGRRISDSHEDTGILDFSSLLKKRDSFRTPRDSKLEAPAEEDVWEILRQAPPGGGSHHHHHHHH

B1: monoclonal antibody 4.1.1 (antibody, V domains shown)
VH: QVQLKESGPGLVAPSQSLSITCTVSGFSLTGYGVNWVRQPPGKGLEWLGMIWGDGSTDYNSVYKSRLSISKDNSKSQVFLKMNSLQTDDTARYYCARRDTGGASMDYWGQGTSVTVSS
VL: DILMTQSPAILSVSPGERVSFSCRASQNIGTNMHWYQQRTNGSPRLLIRFASESFSGIPSRFSGTGSGTDFTLRINSVESEDIADYYCQQSYNWPFTFGAGTKLELK
notes: Mouse hybridoma monoclonal IgG; Biotinylated, DIG-labelled or ruthenylated in the sandwich assays; also called M-4.1.1; M.4.1.1
For the molecule B1, in [1], the Kd turned out to be 56 pM. Moreover, the koff in assay [1] amounted to 0.00012 s⁻¹. Besides, in assay [1], the kon is 2.1e+06 M⁻¹ s⁻¹. In addition, the “ratio (2.7 pg/mL) /blank” value in assay [2] stood at 1; in assay [3] it was 1; in assay [4], 1.32; in assay [10], 1.01; in [11], 1.32; in assay [12] it was 1. Besides, in assay [20], the “ratio (2.7 pg/mL) /blank” value was found to be 1.09. In addition, the “Ratio (Δ OD 2.7 pg/mL/blank)” value stood at 1.43 in assay [5] and 0.99 in assay [16]. Moreover, the “ratio (0.9 pg/mL) / blank” value in [6] was determined as 1.02; in assay [7], 1.01; in assay [9], 1.02; in [14], 1.01; in assay [17], 1.14; in assay [18] it was 0.99. For the same molecule, the “ratio (0.9 pg/mL) / blank” value in assay [19] worked out at 1.11. In addition, the “Ratio (Δ OD 1 ng/mL MYBPC3) / blank” value in [8] was found to be 3.39; in [13], 1.09; in assay [15], 23.6.

B2: monoclonal antibody 7B5 (antibody, V domains shown)
VH: QEQLEESGGGLVKPGGTLTLTCKVSGFDFSSGYDMCWVRQAPGKGLESIACIGSSSASTWYANWVNGRFTVSRSTSLNTVDLKMTSLTVADTATYFCARESSTEYYYNLWGPGTLVTVSS
VL: DIVMTQTPASVEAAVGGTVTIKCQASQSIGNALAWYQQKPGQPPKLLIYSTSYLPSGVPSRFKGGGSGAEYTLTISDLECADAATYYCQSYYVSTSSSDRSSFGGGTEVVVK
notes: Rabbit B-cell derived monoclonal IgG, expressed recombinantly in HEK293 cells; Biotinylated, DIG-labelled or ruthenylated in the sandwich assays; also called mAB 7B5; MAK<MYPBC3<rK-7B5-IgG(SPA)
Take B2: the “ratio (0.9 pg/mL) / blank” value in assay [21] was found to be 1.18; in [14], 1.01; in [17] it was 1.01. Further, the “Ratio (Δ OD 2.7 pg/mL/blank)” value stood at 3.07 in [22], 0.98 in assay [5], 0.98 in assay [24] and 1.01 in assay [16]. Also, the “ratio (2.7 pg/mL) /blank” value was 1.4 in assay [23], 1.03 in [2] and 1.02 in assay [11]. Besides, in assay [25], the Kd turned out to be 190 pM. Moreover, in assay [25], the koff was determined as 0.00051 s⁻¹. Also, the kon in [25] amounted to 2.7e+06 M⁻¹ s⁻¹.
